B1: Wnt11 (ligand, UniProt O96014 25-354, looked up)
chain: IKWLALSKTPSALALNQTQHCKQLEGLVSAQVQLCRSNLELMHTVVHAAREVMKACRRAFADMRWNCSSIELAPNYLLDLERGTRESAFVYALSAAAISHAIARACTSGDLPGCSCGPVPGEPPGPGNRWGGCADNLSYGLLMGAKFSDAPMKVKKTGSQANKLMRLHNSEVGRQALRASLEMKCKCHGVSGSCSIRTCWKGLQELQDVAADLKTRYLSATKVVHRPMGTRKHLVPKDLDIRPVKDSELVYLQSSPDFCMKNEKVGSHGTQDRQCNKTSNGSDSCDLMCCGRGYNPYTDRVVERCHCKYHWCCYVTCRRCERTVERYVCK
notes: Wnt11, purified protein; source: purified
B2: Wnt5a (ligand, UniProt P41221 62-380, looked up)
chain: IIGAQPLCSQLAGLSQGQKKLCHLYQDHMQYIGEGAKTGIKECQYQFRHRRWNCSTVDNTSVFGRVMQIGSRETAFTYAVSAAGVVNAMSRACREGELSTCGCSRAARPKDLPRDWLWGGCGDNIDYGYRFAKEFVDARERERIHAKGSYESARILMNLHNNEAGRRTVYNLADVACKCHGVSGSCSLKTCWLQLADFRKVGDALKEKYDSAAAMRLNSRGKLVQVNSRFNSPTTQDLVYIDPSPDYCVRNESTGSLGTQGRLCNKTSEGMDGCELMCCGRGYDQFKTVQTERCHCKFHWCCYVKCKKCTEIVDQFVCK
notes: Wnt5a, purified protein; source: purified
B3: Wnt3a (ligand, UniProt P56704 19-352, looked up)
chain: SYPIWWSLAVGPQYSSLGSQPILCASIPGLVPKQLRFCRNYVEIMPSVAEGIKIGIQECQHQFRGRRWNCTTVHDSLAIFGPVLDKATRESAFVHAIASAGVAFAVTRSCAEGTAAICGCSSRHQGSPGKGWKWGGCSEDIEFGGMVSREFADARENRPDARSAMNRHNNEAGRQAIASHMHLKCKCHGLSGSCEVKTCWWSQPDFRAIGDFLKDKYDSASEMVVEKHRESRGWVETLRPRYTYFKVPTERDLVYYEASPNFCEPNPETGSFGTRDRTCNVSSHGIDGCDLLCCGRGHNARAERRREKCRCVFHWCCYVSCQECTRVYDVHTCK
notes: Wnt3a, purified protein; source: purified

T1 sequence (Q07954 20-4544): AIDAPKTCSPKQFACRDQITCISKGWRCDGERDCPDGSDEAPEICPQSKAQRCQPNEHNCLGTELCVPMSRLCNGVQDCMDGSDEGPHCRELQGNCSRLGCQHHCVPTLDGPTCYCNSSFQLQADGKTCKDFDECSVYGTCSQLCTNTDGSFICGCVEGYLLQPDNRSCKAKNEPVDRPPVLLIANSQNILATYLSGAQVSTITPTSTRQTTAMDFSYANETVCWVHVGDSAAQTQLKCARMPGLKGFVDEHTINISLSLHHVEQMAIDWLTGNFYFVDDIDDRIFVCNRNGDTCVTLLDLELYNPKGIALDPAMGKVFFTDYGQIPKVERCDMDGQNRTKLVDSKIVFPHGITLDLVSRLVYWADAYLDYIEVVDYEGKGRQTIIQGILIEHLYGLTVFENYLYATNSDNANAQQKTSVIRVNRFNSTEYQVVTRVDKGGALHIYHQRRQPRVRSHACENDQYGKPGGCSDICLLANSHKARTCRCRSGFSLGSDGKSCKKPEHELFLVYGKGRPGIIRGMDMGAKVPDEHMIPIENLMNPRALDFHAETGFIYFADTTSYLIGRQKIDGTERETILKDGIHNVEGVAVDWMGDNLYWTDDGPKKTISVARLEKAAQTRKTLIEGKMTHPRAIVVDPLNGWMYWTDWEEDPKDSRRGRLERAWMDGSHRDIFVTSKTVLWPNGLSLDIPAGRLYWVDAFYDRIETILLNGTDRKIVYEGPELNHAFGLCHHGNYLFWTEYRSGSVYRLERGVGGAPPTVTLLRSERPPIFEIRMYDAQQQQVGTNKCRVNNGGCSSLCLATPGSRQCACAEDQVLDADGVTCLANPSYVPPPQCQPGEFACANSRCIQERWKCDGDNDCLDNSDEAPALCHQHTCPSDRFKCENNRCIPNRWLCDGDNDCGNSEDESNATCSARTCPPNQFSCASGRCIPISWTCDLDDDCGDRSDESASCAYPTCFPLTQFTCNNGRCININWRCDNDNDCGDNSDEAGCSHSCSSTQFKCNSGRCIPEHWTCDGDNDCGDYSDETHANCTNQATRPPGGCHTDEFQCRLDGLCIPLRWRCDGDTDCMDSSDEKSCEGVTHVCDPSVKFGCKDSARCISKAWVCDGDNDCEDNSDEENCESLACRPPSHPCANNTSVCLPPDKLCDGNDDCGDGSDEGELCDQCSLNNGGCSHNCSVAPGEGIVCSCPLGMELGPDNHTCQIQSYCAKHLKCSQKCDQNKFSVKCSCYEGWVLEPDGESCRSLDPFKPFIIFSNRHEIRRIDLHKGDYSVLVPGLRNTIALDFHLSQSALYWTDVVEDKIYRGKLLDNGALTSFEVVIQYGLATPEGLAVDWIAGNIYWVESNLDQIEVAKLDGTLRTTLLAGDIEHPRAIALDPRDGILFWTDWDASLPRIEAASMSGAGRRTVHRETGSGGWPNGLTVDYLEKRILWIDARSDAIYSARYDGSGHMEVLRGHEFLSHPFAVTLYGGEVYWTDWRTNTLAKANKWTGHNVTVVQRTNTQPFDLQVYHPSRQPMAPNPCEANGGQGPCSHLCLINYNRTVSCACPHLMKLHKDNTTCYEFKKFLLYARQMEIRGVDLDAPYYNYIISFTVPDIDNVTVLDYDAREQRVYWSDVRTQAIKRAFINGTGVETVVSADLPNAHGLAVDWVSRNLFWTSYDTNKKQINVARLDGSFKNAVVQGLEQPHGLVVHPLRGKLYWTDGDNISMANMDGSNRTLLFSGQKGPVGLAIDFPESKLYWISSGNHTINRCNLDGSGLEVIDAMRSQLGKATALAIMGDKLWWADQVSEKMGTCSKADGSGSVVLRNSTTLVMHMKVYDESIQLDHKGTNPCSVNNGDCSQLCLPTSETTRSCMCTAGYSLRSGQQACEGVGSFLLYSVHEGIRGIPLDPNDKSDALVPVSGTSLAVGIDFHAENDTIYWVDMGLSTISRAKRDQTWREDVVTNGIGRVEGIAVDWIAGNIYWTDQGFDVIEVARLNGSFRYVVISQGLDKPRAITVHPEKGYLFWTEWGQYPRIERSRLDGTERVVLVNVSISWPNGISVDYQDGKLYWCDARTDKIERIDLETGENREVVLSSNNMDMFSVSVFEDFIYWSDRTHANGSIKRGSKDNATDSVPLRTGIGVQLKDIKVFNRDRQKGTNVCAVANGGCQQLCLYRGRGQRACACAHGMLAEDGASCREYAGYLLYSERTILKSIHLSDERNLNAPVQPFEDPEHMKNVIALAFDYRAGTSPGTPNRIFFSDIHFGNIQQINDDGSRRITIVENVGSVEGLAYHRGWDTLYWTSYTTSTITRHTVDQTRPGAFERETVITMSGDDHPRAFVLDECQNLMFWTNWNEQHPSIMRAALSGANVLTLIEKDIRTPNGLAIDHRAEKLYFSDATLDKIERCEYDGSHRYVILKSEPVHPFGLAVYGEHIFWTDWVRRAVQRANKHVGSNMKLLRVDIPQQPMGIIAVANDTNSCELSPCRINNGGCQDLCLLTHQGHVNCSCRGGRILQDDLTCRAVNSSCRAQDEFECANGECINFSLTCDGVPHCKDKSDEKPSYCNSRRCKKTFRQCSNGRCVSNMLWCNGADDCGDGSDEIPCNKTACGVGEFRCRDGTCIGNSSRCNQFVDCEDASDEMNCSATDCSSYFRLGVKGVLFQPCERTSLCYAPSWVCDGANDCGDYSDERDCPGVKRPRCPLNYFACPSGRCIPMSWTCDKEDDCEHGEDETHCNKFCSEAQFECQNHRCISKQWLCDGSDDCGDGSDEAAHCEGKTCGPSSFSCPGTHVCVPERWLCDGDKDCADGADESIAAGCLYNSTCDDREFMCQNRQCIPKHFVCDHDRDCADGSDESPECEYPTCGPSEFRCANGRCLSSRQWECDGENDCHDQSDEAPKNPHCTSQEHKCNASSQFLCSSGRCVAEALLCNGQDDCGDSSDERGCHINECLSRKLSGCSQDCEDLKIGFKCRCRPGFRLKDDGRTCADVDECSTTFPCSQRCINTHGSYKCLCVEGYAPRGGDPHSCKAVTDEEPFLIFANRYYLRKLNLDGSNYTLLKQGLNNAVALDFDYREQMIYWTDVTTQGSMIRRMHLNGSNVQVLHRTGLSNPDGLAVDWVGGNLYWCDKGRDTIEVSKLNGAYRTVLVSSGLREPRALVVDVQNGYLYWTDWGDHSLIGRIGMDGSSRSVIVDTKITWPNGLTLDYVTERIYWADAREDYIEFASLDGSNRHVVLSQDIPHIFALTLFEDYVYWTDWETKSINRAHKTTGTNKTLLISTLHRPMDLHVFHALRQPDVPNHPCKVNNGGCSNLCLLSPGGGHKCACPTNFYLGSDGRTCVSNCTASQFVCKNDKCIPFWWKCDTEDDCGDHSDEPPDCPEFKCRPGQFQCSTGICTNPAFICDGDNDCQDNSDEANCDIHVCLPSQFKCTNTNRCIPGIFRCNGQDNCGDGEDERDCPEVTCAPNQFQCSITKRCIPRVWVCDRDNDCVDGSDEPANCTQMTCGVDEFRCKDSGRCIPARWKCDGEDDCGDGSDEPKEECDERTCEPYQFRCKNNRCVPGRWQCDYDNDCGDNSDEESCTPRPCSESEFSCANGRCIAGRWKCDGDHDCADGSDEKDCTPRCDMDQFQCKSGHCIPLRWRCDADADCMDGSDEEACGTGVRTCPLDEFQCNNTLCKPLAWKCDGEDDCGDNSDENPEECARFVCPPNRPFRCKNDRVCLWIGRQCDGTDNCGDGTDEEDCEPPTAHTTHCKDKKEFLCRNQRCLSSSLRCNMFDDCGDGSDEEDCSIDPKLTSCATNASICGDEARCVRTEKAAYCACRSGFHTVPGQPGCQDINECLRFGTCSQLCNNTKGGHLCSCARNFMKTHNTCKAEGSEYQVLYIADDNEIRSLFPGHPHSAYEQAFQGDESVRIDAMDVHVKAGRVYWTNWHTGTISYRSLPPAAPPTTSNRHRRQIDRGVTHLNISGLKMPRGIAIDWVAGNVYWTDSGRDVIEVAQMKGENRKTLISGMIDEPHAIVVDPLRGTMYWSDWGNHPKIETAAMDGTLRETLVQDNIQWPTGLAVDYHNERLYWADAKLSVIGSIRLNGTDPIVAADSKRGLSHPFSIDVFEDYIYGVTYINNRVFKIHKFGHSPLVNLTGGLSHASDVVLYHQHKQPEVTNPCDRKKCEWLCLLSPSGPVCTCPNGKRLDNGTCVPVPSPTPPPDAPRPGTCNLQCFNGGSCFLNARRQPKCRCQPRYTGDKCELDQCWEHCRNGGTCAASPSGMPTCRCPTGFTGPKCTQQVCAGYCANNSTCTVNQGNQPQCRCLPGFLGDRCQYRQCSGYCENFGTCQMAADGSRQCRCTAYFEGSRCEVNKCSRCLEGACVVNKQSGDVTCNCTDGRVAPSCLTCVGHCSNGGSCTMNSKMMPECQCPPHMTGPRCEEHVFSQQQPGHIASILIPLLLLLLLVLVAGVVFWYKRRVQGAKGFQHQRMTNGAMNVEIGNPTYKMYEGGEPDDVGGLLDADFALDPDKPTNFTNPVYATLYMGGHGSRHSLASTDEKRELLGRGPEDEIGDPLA

This assay has as its target T1, Low-density lipoprotein receptor-related protein 1 (LRP1), purified human full-length (human, UniProt Q07954 20-4544).
T1 construct: Low-density lipoprotein receptor-related protein 1 (LRP1), human, purified full-length protein coated on the plate; also called full-length LRP1; Full-length sLRP1; source: purified
In words: ELISA; solid-phase binding assay; human full-length LRP1 (10 nM in 50 mM Tris-HCl pH 7.5, 150 mM NaCl, 10 mM CaCl2) coated on microtiter plates; 0-200 nM Wnt in 5% BSA blocking solution, 30 min at RT; bound Wnt detected with a specific anti-Wnt antibody; signal of uncoated wells subtracted; apparent constants (KD,app) extrapolated from a one-phase decay nonlinear fit. The following applies: both partners purified.
Consider B1, for which the Kd is 42 nM. Take B2: the Kd is 31 nM.

In the case of B3, the Kd is above 200 nM.

The record behind these values is publication doi:10.1101/2023.07.11.548556, “Skeletal progenitor LRP1 deficiency causes severe and persistent skeletal defects with WNT/planar cell polarity dysregulation” (bioRxiv, 2023).
